Measurements published in article PMC6751169, “Modular enzyme assembly for enhanced cascade biocatalysis and metabolic flux” (Nature Communications, 2019).

Molecular target: the molecule itself
Assay: not stated; oligomeric state of the untagged enzymes; the sentence points to Supplementary Figs. 1 and 2

B1: MenD (2-succinyl-5-enolpyruvyl-6-hydroxy-3-cyclohexadiene-1-carboxylate synthase), untagged (enzyme, E. coli, UniProt P17109 1-556, looked up)
chain: MSVSAFNRRWAAVILEALTRHGVRHICIAPGSRSTPLTLAAAENSAFIHHTHFDERGLGHLALGLAKVSKQPVAVIVTSGTAVANLYPALIEAGLTGEKLILLTADRPPELIDCGANQAIRQPGMFASHPTHSISLPRPTQDIPARWLVSTIDHALGTLHAGGVHINCPFAEPLYGEMDDTGLSWQQRLGDWWQDDKPWLREAPRLESEKQRDWFFWRQKRGVVVAGRMSAEEGKKVALWAQTLGWPLIGDVLSQTGQPLPCADLWLGNAKATSELQQAQIVVQLGSSLTGKRLLQWQASCEPEEYWIVDDIEGRLDPAHHRGRRLIANIADWLELHPAEKRQPWCVEIPRLAEQAMQAVIARRDAFGEAQLAHRICDYLPEQGQLFVGNSLVVRLIDALSQLPAGYPVYSNRGASGIDGLLSTAAGVQRASGKPTLAIVGDLSALYDLNALALLRQVSAPLVLIVVNNNGGQIFSLLPTPQSERERFYLMPQNVHFEHAAAMFELKYHRPQNWQELETAFADAWRTPTTTVIEMVVNDTDGAQTLQQLLAQVSHL
notes: MenD, 2-succinyl-5-enolpyruvyl-6-hydroxy-3-cyclohexadiene-1-carboxylate synthase, E. coli; subunit 63 kDa; 'Untagged' means without RIAD or RIDD; also called untagged MenD; non-tagged enzyme
- stoichiometry N: 4
